Among the data in publication PMC4813732 are heparin cofactor activity (residual thrombin activity, second-order rate constant of thrombin inhibition, with heparin (residual thrombin activity on S-2238, 25°C, pH 7.4) and second-order rate constant of thrombin inhibition, without heparin (residual thrombin activity on S-2238, 25°C, pH 7.4) values, retold here.

For test [1], the target named is Human thrombin (human).
In test [2] the target is Human thrombin (human). This is another data set of the same source.

“latent form of recombinant human antithrombin (from UniProt P01008 33-464) (natural protein)”: the heparin cofactor activity (residual thrombin activity at the end of thrombin inactivation in the presence of heparin; phAT as standard) in test [1] was determined as 0.35 IU/mg.
For the substance “α-form of recombinant human antithrombin bearing high-mannose-type N-linked oligosaccharides (from UniProt P01008 33-464) (natural protein)”, in test [2], the second-order rate constant of thrombin inhibition, with heparin (residual thrombin activity on S-2238, 25°C, pH 7.4) is 1.9e+07 /M/s and the second-order rate constant of thrombin inhibition, without heparin (residual thrombin activity on S-2238, 25°C, pH 7.4) was 6600 /M/s. For the same substance, in test [1], the heparin cofactor activity (residual thrombin activity at the end of thrombin inactivation in the presence of heparin; phAT as standard) was determined as 5.83 IU/mg.
Take “α-form of recombinant human antithrombin bearing sialylated biantennary complex-type N-linked oligosaccharides lacking a core fucose (from UniProt P01008 33-464) (natural protein)”: the second-order rate constant of thrombin inhibition, with heparin (residual thrombin activity on S-2238, 25°C, pH 7.4) in test [2] was 1.9e+07 /M/s. The heparin cofactor activity (residual thrombin activity at the end of thrombin inactivation in the presence of heparin; phAT as standard) in test [1] is 5.49 IU/mg.
On to “β-form of recombinant human antithrombin bearing high-mannose-type N-linked oligosaccharides (from UniProt P01008 33-464) (natural protein)”, for which, in test [2], the second-order rate constant of thrombin inhibition, with heparin (residual thrombin activity on S-2238, 25°C, pH 7.4) was 1.9e+07 /M/s and the second-order rate constant of thrombin inhibition, without heparin (residual thrombin activity on S-2238, 25°C, pH 7.4) is 6100 /M/s. Moreover, the heparin cofactor activity (residual thrombin activity at the end of thrombin inactivation in the presence of heparin; phAT as standard) in test [1] was 5.8 IU/mg.
For “β-form of recombinant human antithrombin bearing sialylated biantennary complex-type N-linked oligosaccharides lacking a core fucose (from UniProt P01008 33-464) (natural protein)” the same measures were 2e+07 /M/s, 7300 /M/s and 5.66 IU/mg.
